# Assay: Insulin lispro pharmacokinetics after subcutaneous Humalog in fasted pigs with diabetes (plasma lispro by ELISA)
# Assay type: in vivo, pig
# Settings: pilot study, pigs with diabetes (n = 6), fasted 4–6 h, 4 U Humalog (100 U/ml) subcutaneous, plasma lispro by Insulin Lispro ELISA (Mercodia)
# Description: Insulin pharmacokinetics are more rapid in pigs than in humans. ^19 , ^20 , ^29 Thus, it was necessary to construct models for insulin action to be used in both open‐source systems, which model insulin action as an exponential curve. In AndroidAPS, the parameters defining the curve are time‐to‐peak action (TPA) and total duration of insulin action (DIA). ^23 Loop uses time‐to‐onset, TPA, and DIA. ^15 The pig pharmacokinetic curves for use in open‐source algorithms were determined from data obtained during a pilot study in pigs (n = 6). This experimental pharmacokinetic curve is consistent with pharmacokinetics observed in the pigs used in this study. ^20 Pigs were kept on fast 4–6 h and then injected subcutaneously with a 4 U dose of Humalog (100 U/ml, Eli Lilly). Before injection, baseline blood was sampled from an intravenous catheter line and measured using a handheld glucose monitor (Bayer Contour Next). After injection, blood was sampled from the intravenous catheter line every 5 min for the first 60 min, then every 30 min up to 4 h. Blood was collected in K2EDTA plasma tubes (Greiner‐BioOne) for analysis with ELISA. Plasma lispro concentrations were quantified using an Insulin Lispro ELISA kit (Mercodia). Pharmacodynamics were approximated by blood glucose measurements in a stable fasting state after 2–3 h (Figure 2A). […]
substance,measurement,setting,value
"Humalog: Commercial rapid-acting insulin lispro formulation (100 U/ml, Eli Lilly) injected subcutaneously in pigs",near complete exposure duration,,~2 h
same,time of peak serum concentrations,"sampled every 5 min for 60 min, then every 30 min up to 4 h",20 to 25 min
